To fix the notation:
B1: target 3 insC 3' of 13,insU 3' of 4 (mixed)
RNA 1: CACCCGUGCAAAAUUGCAGGGGUCUAAAACGACCUGAAUAUUUCAGAUCAAA
RNA 2: GGGAAUGGAUCCACAUCUACGAAUUCGUUUUUGAUCUGACAAUAUUCAGUGUCUGCAGAUCGGAAGAGCACACGU
B2: target 3 complement block 18-20 (mixed)
RNA 1: B1 RNA 1
RNA 2: GGGAAUGGAUCCACAUCUACGAAUUCGUUUUACUUCUGAAAUAUUCAGGUCUGCAGAUCGGAAGAGCACACGU
B3: target 3 insC 3' of 5,insA 3' of 3 (mixed)
RNA 1: B1 RNA 1
RNA 2: B1 RNA 2 with C40A, A42U, U43A, A44U, U46C, C47A, A48C, U50G, G51A
B4: target 3 insU 3' of 11,insU 3' of 5 (mixed)
RNA 1: B1 RNA 1
RNA 2: B1 RNA 2 with C40A, A42U, G49U, U50G
B5: target 3 insC 3' of 11,insA 3' of 7 (mixed)
RNA 1: B1 RNA 1
RNA 2: B1 RNA 2 with C40A, A42C, C47A, A48C, G49A, U50G
B6: target 3 C1G,A5G (mixed)
RNA 1: B1 RNA 1
RNA 2: B2 RNA 2 with A32U, C33G, U34A, A47G, C51G
B7: target 3 insC 3' of 7,insG 3' of 7 (mixed)
RNA 1: B1 RNA 1
RNA 2: B1 RNA 2 with C40A, A42U, U43A, A44U, U46C, C47G, A48C, G49A, U50G
B8: target 3 insU 3' of 14,insC 3' of 3 (mixed)
RNA 1: B1 RNA 1
RNA 2: B1 RNA 2 with A39U, C40A, U50G, G51C
B9: target 3 U8A (mixed)
RNA 1: B1 RNA 1
RNA 2: B2 RNA 2 with A32U, C33G, U34A, U44A
B10: target 3 C1A,U8A (mixed)
RNA 1: B1 RNA 1
RNA 2: B2 RNA 2 with A32U, C33G, U34A, U44A, C51A
B11: target 3 insA 3' of 6,insC 3' of 5 (mixed)
RNA 1: B1 RNA 1
RNA 2: B1 RNA 2 with C40A, A42U, U43A, A44U, U46C, C47A, G49C, U50G
B12: target 3 del5,del22 (mixed)
RNA 1: B1 RNA 1
RNA 2: GGGAAUGGAUCCACAUCUACGAAUUCGUUUUGAUCUGAAAUAUUCGGUCUGCAGAUCGGAAGAGCACACGU
B13: target 3 A13G,U22G (mixed)
RNA 1: B1 RNA 1
RNA 2: B2 RNA 2 with U30G, A32U, C33G, U34A, A39G
B14: target 3 insG 3' of 9,insU 3' of 4 (mixed)
RNA 1: B1 RNA 1
RNA 2: B1 RNA 2 with C40A, A42U, U43A, A44G
B15: target 3 G4U,A5U (mixed)
RNA 1: B1 RNA 1
RNA 2: B2 RNA 2 with A32U, C33G, U34A, A47U, G48U
B16: target 3 A5U,U8G (mixed)
RNA 1: B1 RNA 1
RNA 2: B2 RNA 2 with A32U, C33G, U34A, U44G, A47U
B17: target 3 A9G,U22C (mixed)
RNA 1: B1 RNA 1
RNA 2: B2 RNA 2 with U30C, A32U, C33G, U34A, A43G
B18: target 3 C1G,U8A (mixed)
RNA 1: B1 RNA 1
RNA 2: B2 RNA 2 with A32U, C33G, U34A, U44A, C51G
B19: target 3 insG 3' of 6,insA 3' of 3 (mixed)
RNA 1: B1 RNA 1
RNA 2: B1 RNA 2 with C40A, A42U, U43A, A44U, U46C, C47G, U50G, G51A
B20: target 3 insA 3' of 22,insA 3' of 21 (mixed)
RNA 1: B1 RNA 1
RNA 2: GGGAAUGGAUCCACAUCUACGAAUUCGUUUAUAUGAUCUGAAAUAUUCAGGUCUGCAGAUCGGAAGAGCACACGU
B21: target 3 G3C,U7C (mixed)
RNA 1: B1 RNA 1
RNA 2: B2 RNA 2 with A32U, C33G, U34A, U45C, G49C
B22: target 3 G4C,U8A (mixed)
RNA 1: B1 RNA 1
RNA 2: B2 RNA 2 with A32U, C33G, U34A, U44A, G48C
B23: target 3 insC 3' of 22,insA 3' of 22 (mixed)
RNA 1: B1 RNA 1
RNA 2: B20 RNA 2 with A31C, U32A, A33U
B24: target 3 insC 3' of 9,insA 3' of 8 (mixed)
RNA 1: B1 RNA 1
RNA 2: B1 RNA 2 with C40A, A42U, U43A, A44C, U46A, C47U, A48C, G49A, U50G
B25: target 3 C1U,A5G (mixed)
RNA 1: B1 RNA 1
RNA 2: B2 RNA 2 with A32U, C33G, U34A, A47G, C51U
B26: target 3 C6A,U8C (mixed)
RNA 1: B1 RNA 1
RNA 2: B2 RNA 2 with A32U, C33G, U34A, U44C, C46A
B27: target 3 U2G,A9C (mixed)
RNA 1: B1 RNA 1
RNA 2: B2 RNA 2 with A32U, C33G, U34A, A43C, U50G
B28: target 3 U8C,A11C (mixed)
RNA 1: B1 RNA 1
RNA 2: B2 RNA 2 with A32U, C33G, U34A, A41C, U44C
B29: target 1 insG 3' of 3,insC 3' of 1 (mixed)
RNA 1: CACCCGUGCAAAAAUGCAGGGGUCUAAAACUGAGCGGAUAACCUCUCUAUGG
RNA 2: GGGAAUGGAUCCACAUCUACGAAUUCGUACCAUAGAGAGGUUAUCCGCUGCACCCGAGAUCGGAAGAGCACACGU
B30: target 1 insA 3' of 13,insG 3' of 2 (mixed)
RNA 1: B29 RNA 1
RNA 2: GGGAAUGGAUCCACAUCUACGAAUUCGUACCAUAGAGAGAGUUAUCCGCUCGACCGAGAUCGGAAGAGCACACGU
B31: target 1 C2U,U10C (mixed)
RNA 1: B29 RNA 1
RNA 2: GGGAAUGGAUCCACAUCUACGAAUUCGUACCAUAGAGAGGUCAUCCGCUUACCGAGAUCGGAAGAGCACACGU

Positions count from the first letter of the chain named. Numbers in names are those of the source.

The target of this data set is T1, EsCas13d, nuclease-dead (Eubacterium siraeum, UniProt B0MS50, R295A;H300A;R849A;H854A).
T1 sequence: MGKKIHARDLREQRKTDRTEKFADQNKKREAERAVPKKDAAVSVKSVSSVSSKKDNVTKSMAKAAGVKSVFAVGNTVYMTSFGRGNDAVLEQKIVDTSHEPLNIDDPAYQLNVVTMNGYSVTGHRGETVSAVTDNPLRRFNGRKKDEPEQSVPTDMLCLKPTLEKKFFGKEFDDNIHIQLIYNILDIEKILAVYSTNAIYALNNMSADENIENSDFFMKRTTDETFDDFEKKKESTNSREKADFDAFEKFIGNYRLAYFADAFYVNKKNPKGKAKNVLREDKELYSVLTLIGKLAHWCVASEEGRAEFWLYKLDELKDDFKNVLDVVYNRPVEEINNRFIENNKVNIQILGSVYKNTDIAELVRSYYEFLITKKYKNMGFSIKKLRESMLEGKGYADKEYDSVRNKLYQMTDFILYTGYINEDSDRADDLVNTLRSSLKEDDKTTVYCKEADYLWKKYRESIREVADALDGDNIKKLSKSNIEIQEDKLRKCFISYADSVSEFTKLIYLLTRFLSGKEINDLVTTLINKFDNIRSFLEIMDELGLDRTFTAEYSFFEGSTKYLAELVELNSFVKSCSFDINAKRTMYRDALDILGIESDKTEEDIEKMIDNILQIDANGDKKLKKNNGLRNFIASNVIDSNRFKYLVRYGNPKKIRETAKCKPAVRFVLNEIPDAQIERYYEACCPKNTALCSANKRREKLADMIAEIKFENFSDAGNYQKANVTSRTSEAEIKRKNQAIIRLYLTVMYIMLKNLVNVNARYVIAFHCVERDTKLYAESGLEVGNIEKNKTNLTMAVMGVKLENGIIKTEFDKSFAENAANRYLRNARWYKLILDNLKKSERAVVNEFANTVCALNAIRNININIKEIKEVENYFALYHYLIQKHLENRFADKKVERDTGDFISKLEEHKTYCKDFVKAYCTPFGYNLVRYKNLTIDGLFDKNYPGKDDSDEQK
The data set can be described thus: crRNA (strand 1, pre-loaded); Mg2+; 40 mM Tris-HCl pH 7.5, 150 mM NaCl, 6 mM MgCl2, 1 mM DTT, 0.1% Tween-20, 0.2 mg/ml BSA; 25 C; 10 min per concentration, then washed. The following applies: tags: His6-TwinStrep-SUMO cleaved; N-terminal SNAP kept (SNAP-Surface 488); label: 3' end held by stalled T7 RNA polymerase.
B1: the Kd was 59.5 ± 17.5 nM.

Take B2: binding was put at a Kd of 26.1 ± 5.05 nM.

In turn, B3 came in with a Kd of 7.35 ± 0.5 nM.

The molecule B4 displayed a Kd of 64 ± 13 nM.

The molecule B5 yielded a Kd of 65 ± 19 nM.

In the case of B6, the Kd was 55 ± 22 nM.

The molecule B7 returned a Kd of 16.8 ± 1.45 nM.

With B8, the Kd is 71 ± 28 nM.

B9: the Kd came to 58.5 ± 7.5 nM.

B10 came in with a Kd of 68 ± 17.5 nM.

As to B11, the affinity, expressed as Kd, was 7.3 ± 0.55 nM.

As to B12, the Kd is 29.3 ± 2.3 nM.

B13 showed a Kd of 67 ± 26 nM.

In turn, B14 showed a Kd of 74.5 ± 19 nM.

B15 had a Kd of 25.2 ± 3.6 nM.

B16 showed a Kd of 92.5 ± 16.5 nM.

Molecule B17 yielded a Kd of 25.9 ± 4 nM.

B18: binding was characterised by a dissociation constant (Kd) of 45.5 ± 15.5 nM.

Molecule B19 displayed a Kd of 10.4 ± 1.15 nM.

As for B20, the Kd is 31.9 ± 4.5 nM.

B21 showed a Kd of 64 ± 12 nM.

In turn, B22 showed an equilibrium dissociation constant (Kd) of 71.5 ± 10 nM.

B23 returned a Kd of 20.2 ± 2.4 nM.

As for B24, the Kd was 43.9 ± 7.35 nM.

The molecule B25 yielded a Kd of 20.6 ± 3.3 nM.

Consider B26, for which the equilibrium dissociation constant (Kd) turned out to be 34.9 ± 3.6 nM.

With B27, binding was characterised by a dissociation constant (Kd) of 106 ± 49.5 nM.

With B28, the equilibrium dissociation constant (Kd) was 57 ± 14 nM.

As for B29, the Kd is 11.5 ± 0.9 nM.

Take B30: the Kd amounted to 3.54 ± 0.28 nM.

Molecule B31 showed a Kd of 20.8 ± 1.6 nM.

The term Kd denotes a measure of binding affinity in units of concentration. A high value points to lower affinity.

The values above are taken from PMC10786891, “Massively parallel profiling of RNA-targeting CRISPR-Cas13d”.
